Test results from publication PMC3936712.
Like-named read-outs stand apart in the source and are kept apart here.

Tests used:
Experiment in all cases: fluorescence anisotropy
[1] = target: T1, jRdRp (NS5 RdRp module, wt) (Japanese encephalitis virus strain …, UniProt O90417 2799-3432)
[2] = target: T1, jRdRp (NS5 RdRp module, wt); remark: listed apart in the source
[3] = target: T1, jRdRp (NS5 RdRp module, wt); remark: listed apart in the source

**Q.** What does the source list for AUAAACUUCU (ssRNA) [10mer ssRNA (FR10)]?
**A.** Kd [1]: 39.3 ± 2.3 nM; Kd [2]: 33.9 ± 0.6 nM; Kd [3]: 40.4 ± 2.1 nM
